Assay results from patent publication US20250382371A1 (NATIONAL INSTITUTES OF BIOMEDICAL INNOVATION HEALTH AND …, published 2025).

T1: hFCRL1/FcRH1-His (manufactured by R&D Systems) (human, UniProt Q96LA6 17-307)
T1 construct: Bought His-tagged recombinant human FCRL1; The protein in the assay is soluble and is probably only the extracellular part; not shown: His tag
T1 sequence: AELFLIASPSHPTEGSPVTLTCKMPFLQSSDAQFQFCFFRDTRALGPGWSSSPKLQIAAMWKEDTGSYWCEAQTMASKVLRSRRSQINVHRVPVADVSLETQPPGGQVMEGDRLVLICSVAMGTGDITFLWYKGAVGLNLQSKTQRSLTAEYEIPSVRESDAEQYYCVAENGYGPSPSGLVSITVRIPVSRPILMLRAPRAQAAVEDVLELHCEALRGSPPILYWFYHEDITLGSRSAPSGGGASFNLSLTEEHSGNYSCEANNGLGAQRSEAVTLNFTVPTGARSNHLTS

T2: cynomolgus monkey FCRL1 (XP_015310712), transiently expressed on 293T cells (cynomolgus monkey)
T2 chain: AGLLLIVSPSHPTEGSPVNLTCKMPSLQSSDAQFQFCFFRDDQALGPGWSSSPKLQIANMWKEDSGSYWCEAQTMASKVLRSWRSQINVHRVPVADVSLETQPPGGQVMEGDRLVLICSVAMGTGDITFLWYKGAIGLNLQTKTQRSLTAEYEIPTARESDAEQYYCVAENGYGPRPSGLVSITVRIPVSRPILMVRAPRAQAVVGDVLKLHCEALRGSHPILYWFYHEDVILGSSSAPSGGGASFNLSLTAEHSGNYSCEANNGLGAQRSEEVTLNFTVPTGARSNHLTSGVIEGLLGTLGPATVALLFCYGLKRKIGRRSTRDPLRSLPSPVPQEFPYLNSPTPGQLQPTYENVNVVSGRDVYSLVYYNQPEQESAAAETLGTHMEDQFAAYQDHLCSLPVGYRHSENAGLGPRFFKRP

T3: human FCRL1 (NCBI accession number: NP_443170.1), transiently expressed on 293T cells (human, UniProt Q96LA6 17-429)
T3 construct: also called Fc receptor-like protein 1; CD307a
T3 sequence: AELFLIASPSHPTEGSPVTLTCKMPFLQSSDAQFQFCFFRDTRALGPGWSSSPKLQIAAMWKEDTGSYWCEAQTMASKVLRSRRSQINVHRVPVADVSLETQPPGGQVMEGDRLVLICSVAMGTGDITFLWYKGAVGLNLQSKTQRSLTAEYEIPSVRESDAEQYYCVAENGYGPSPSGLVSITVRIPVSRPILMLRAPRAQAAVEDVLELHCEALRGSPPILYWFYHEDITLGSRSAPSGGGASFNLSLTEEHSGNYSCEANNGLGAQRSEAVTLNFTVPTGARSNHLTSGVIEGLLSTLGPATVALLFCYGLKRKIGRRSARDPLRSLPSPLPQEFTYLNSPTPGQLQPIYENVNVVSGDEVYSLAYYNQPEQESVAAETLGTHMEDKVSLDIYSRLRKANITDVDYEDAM


How the values were obtained:
[1] = molecular target: T1, hFCRL1/FcRH1-His (manufactured by R&D …); experiment: SPR (Biacore 8K+), antibody captured by anti-human IgG, hFCRL1/FcRH1-His as analyte; 1:1 Binding model
Procedure: (§1) For the purpose of comparing the binding activity of the DK681 chimeric antibody (chDK681) and the DK1142 chimeric antibody (chDK1142) obtained by connecting […] of the DK681 and DK1142 mouse antibodies obtained in Example 4 to a human IgG1 (S239C) constant region with the binding activity of the anti-FCRL1 humanized antibody obtained in Example 10 to human FCRL1, the binding activity to hFCRL1/FcRH1-His (manufactured by R&D Systems) was measured by a surface plasmon resonance method (SPR method) using Biacore8K+ (manufactured by Cytiva).
(§2) The binding activity of the anti-FCRL1 antibody was measured as follows. An anti-human IgG antibody was immobilized on a CM5 sensor chip (manufactured by Cytiva) in accordance with the attached protocol using a Human Antibody Capture Kit (manufactured by Cytiva). An anti-FCRL1 antibody prepared at 5 μg/mL was added to a flow cell on which the Anti-human IgG antibody was immobilized at a flow rate of 10 μL/min for 30 seconds.
(§3) Next, hFCRL1/FcRH1-His, which is prepared stepwise to 5 concentrations by 3-fold dilution from 10000 ng/ml, was monitored at a flow rate of 30 μL/min for a binding reaction for 180 seconds and a dissociation reaction for 400 seconds. For the obtained sensorgram, a kinetic constant of each antibody was calculated by fitting by a Steady state affinity model or a 1:1 Binding model using Bia Evaluation Software (manufactured by Cytiva). The calculated binding rate constant (ka), dissociation rate constant (kd) and dissociation constant [KD] of each antibody are shown in Table 5. The chDK681 is referred to as DK681 F01, and the chDK1142 is referred to as DK1142 F02.

[2] = molecular target: T1, hFCRL1/FcRH1-His (manufactured by R&D …); experiment: SPR (Biacore 8K+), antibody captured by anti-human IgG, hFCRL1/FcRH1-His as analyte; Steady state affinity model; KD from Steady state affinity model, not from kd/ka
Procedure: as §1
(§4) The binding activity of the anti-FCRL1 antibody was measured as follows. An anti-human IgG antibody was immobilized on a CM5 sensor chip (manufactured by Cytiva) in accordance with the attached protocol using a Human Antibody Capture Kit (manufactured by Cytiva). […]
as §3, with “The chDK681 is referred to as DK681 F01, and the chDK1142 is referred to as DK1142 F02.” left out

[3] = molecular target: T1, hFCRL1/FcRH1-His (manufactured by R&D …); experiment: SPR (Biacore 8K+), antibody captured by anti-human IgG, hFCRL1/FcRH1-His as analyte; Steady state affinity model; kinetic rate constant of the same sensorgram
Procedure: as §1, §4
as §3, with “The chDK681 is referred to as DK681 F01, and the chDK1142 is referred to as DK1142 F02.” left out

[4] = molecular target: T2, cynomolgus monkey FCRL1 (XP_015310712), …; experiment: flow cytometry on 293T cells transiently expressing cynomolgus monkey FCRL1; apparent KD from EC50 of a 4-parameter fit
Procedure: (§5) An antigen-specific reactivity of the novel anti-human FCRL1 mouse antibody obtained in Example 4 was evaluated by Flow Cytometry (FCM). FCRL1 antigen-expressing cells were prepared by transiently expressing the recombinant FCRL1 antigen on 293T cells. A codon-optimized cDNA was synthesized based on the amino acid sequence of human FCRL1 (NCBI accession number: NP_443170.1) or cynomolgus monkey FCRL1 (XP_015310712), and a fragment in which the sequence of an internal ribosome entry site (IRES) derived from the encephalomyocarditis virus (EMCV) and the sequence of TagBFP were arranged in tandem was cloned into pcDNA 3.1hygro to construct an expression plasmid vector for human FCRL1 or cynomolgus monkey FCRL1. The purified expression vector was transfected into 293T cells, cells were collected 2 days after transfection, and binding with each antibody was confirmed by FCM.
(§6) As the secondary antibody, when the sample is a mouse antibody, R-Phycoerythrin (PE) F(ab′)₂ Fragment Goat Anti-Mouse IgG (H+L) (Jackson ImmunoResearch) was used, and when the sample is a human antibody or a human chimeric antibody, R-Phycoerythrin (PE) F(ab′)₂ Fragment Goat Anti-Human IgG, Fcγ Fragment Specific (Jackson ImmunoResearch) was used. A solution of each secondary antibody was prepared by diluting the stock solution 200 times with an FCM buffer. After washing once, cells in each well were suspended with 100 μL of FCM buffer, and binding to each antibody was confirmed by flow cytometry (FCM).
(§7) Cells that transiently expressed human FCRL1 or cynomolgus monkey FCRL1 were reacted with a 3-fold dilution series of each antibody starting from 100 nM (15 μg/ml) at 12 points. Data obtained by the FCM was analyzed, and a binding amount of each antibody bound to the cell was calculated as a fluorescence amount MFI derived from the PE-labeled secondary antibody. An antibody concentration and the measured MFI were plotted with respect to a logarithm of the antibody concentration, a saturated binding curve of each antibody was obtained, and regression was performed by a 4-parameter logistic model.

[5] = molecular target: T3, human FCRL1 (NCBI accession number: …); experiment: flow cytometry on 293T cells transiently expressing human FCRL1; apparent KD from EC50 of a 4-parameter fit
Procedure: as §5, §6, §7

[6] = molecular target: T1, hFCRL1/FcRH1-His (manufactured by R&D …); experiment: SPR (Biacore 8K+), antibody captured by anti-human IgG, hFCRL1/FcRH1-His as analyte; Steady state affinity model
Procedure: as §1, §2, §3

| Kd [1] | koff [1] | kon [1] | Binder | other results |
| --- | --- | --- | --- | --- |
| 11.1 nM | 0.0428 s⁻¹ | 3.85e+06 M⁻¹ s⁻¹ | DK1142 humanized antibody DK1142 F22, human IgG1 (S239C) (antibody) heavy: not shown light: DIVMTQSPLSLPVTLGEPASISCRSSQSIVHSNGNTYLEWYLQKPGQSPQLLIYKVSNRFSGVPDRFSGSGSGTDFTLKISRVEAEDVGVYYCFQGSHVPWTFGQGTKVEIK |  |
| 12.8 nM | 0.0686 s⁻¹ | 5.36e+06 M⁻¹ s⁻¹ | DK1142 humanized antibody DK1142 F21, human IgG1 (S239C) (antibody) heavy: not shown light: DIVMTQSPLSLPVTLGEPASISCRSSQSIVHSNGNTYLEWYLQKPGQSPQLLIYKVSNRFSGVPDRFSGSGSGTDFTLKISRVEAEDVGVYYCFQGSHVPWTFGQGTKVEIK |  |
| 12.2 nM | 0.0274 s⁻¹ | 2.24e+06 M⁻¹ s⁻¹ | DK1142 humanized antibody DK1142 F24, human IgG1 (S239C) (antibody) heavy: not shown light: DVVMTQSPLSLPVTLGEPASISCRSSQSIVHSNGNTYLEWYLQKPGQSPKLLIYKISNRFSGVPDRFSGSGSGTDFTLKISRVEAEDVGVYYCFQGSHVPWTFGQGTKVEIK |  |
|  |  |  | DK681 chimeric antibody (chDK681), human IgG1 (S239C) (antibody, also called DK681 F01; not shown: human kappa light chain constant region (pFUSE2-CLIg-hk vector)) heavy: not shown light: DIVMSQSPSSLAVSVGEKVTMSCKSSQSLLYSSNQKNYLAWYQQKPGQSPKLLIYWASTRESGVPDRFTGSGSGTDFTLTISSVKAEDLAIYYCQQYSNYPTFGSGTKLEIK | Kd [2]: 6.65 nM; koff [3]: 0.00105 s⁻¹; kon [3]: 447000 M⁻¹ s⁻¹ |
|  |  |  | anti-human FCRL1 mouse monoclonal antibody DK681 (antibody, V domains shown) VH: QVQLQQPGAELVKPGTSVKLSCKASGYTFTRYWMHWVKQRPGQGLEWIGRIDPNSGGSKYNEKFKSKATLTVDKTSSSAYMQLNSLTSEDSAVYYCTRVNSGAMDYWGQGTSVTVSS VL: DIVMSQSPSSLAVSVGEKVTMSCKSSQSLLYSSNQKNYLAWYQQKPGQSPKLLIYWASTRESGVPDRFTGSGSGTDFTLTISSVKAEDLAIYYCQQYSNYPTFGSGTKLEIK | Kd [4]: 0.8 nM; Kd [5]: 1 nM |
|  |  |  | DK681 humanized antibody DK681 F12, human IgG1 (S239C) (antibody) heavy: not shown light: DIVMTQSPDSLAVSLGERATMNCKSSQSLLYSSNQKNYLAWYQQKPGQSPKLLIYWASTRESGVPDRFSGSGSGTDFTLTISSLQAEDVAIYYCQQYSNYPTFGQGTKVEIK | Kd [6]: 9.15 nM; koff [6]: 0.00259 s⁻¹; kon [6]: 385000 M⁻¹ s⁻¹ |
